This is an account of results in patent US20130089556A1 (SAMSUNG ELECTRONICS, published 2013).

Common to all, as to test: SPR (printed 'Biocare'), antibody immobilised on CM5 chip, c-Met injected at 100-0.39 nM
Test [1] has as its target T1, human c-Met protein (R&D Systems) (human, UniProt P08581 25-932, limits assumed).
T1 construct: also called antigen
How it is done: Each of antibodies was immobilized to about 80˜110 RU on a CM5 chip, and the c-Met protein (which is an antigen) was injected at nine different concentrations within a range of about 100 nM to about 0.39 nM at a rate of 30 μl/min to obtain kₒₙ and koff values as illustrated in Table 2. KD values were calculated from the kₒₙ and koff values.

In test [2] the target is T1, human c-Met protein (R&D Systems). How it is done:
Each of antibodies shown in Table 4 was immobilized to about 80˜110 RU on a CM5 chip. The c-Met protein was injected at nine different concentrations within a range of about 100 nM to about 0.39 nM at a rate of 30 μl/min to obtain kₒₙ and koff values as illustrated in Table 4. KD values were calculated from the kₒₙ and koff values.
This is another data set of the same source.

For test [3] the target is unchanged. How it is done: Each of antibodies was immobilized to about 80-110 RU on a CM5 chip, and the c-Met protein was injected at nine different concentrations within a range of about 100 nM to about 0.39 nM at a rate of 30 μl/min to obtain kₒₙ and koff values as illustrated in Table 3. KD values were calculated from the kₒₙ and koff values.
The source holds these as a separate data set.

Usually Kd stands for the free concentration of one partner at which half of the binding sites on the other are occupied at equilibrium, for simple one-to-one binding. A low value points to higher affinity. In general, koff refers to a measure of how fast the partners let go of each other. Low readings indicate slow dissociation, high ones fast dissociation. As usually defined, the kon is a measure of how fast the partners come together.

Like-named read-outs stand apart in the source and are kept apart here.

T1 sequence (P08581 25-932 limits assumed): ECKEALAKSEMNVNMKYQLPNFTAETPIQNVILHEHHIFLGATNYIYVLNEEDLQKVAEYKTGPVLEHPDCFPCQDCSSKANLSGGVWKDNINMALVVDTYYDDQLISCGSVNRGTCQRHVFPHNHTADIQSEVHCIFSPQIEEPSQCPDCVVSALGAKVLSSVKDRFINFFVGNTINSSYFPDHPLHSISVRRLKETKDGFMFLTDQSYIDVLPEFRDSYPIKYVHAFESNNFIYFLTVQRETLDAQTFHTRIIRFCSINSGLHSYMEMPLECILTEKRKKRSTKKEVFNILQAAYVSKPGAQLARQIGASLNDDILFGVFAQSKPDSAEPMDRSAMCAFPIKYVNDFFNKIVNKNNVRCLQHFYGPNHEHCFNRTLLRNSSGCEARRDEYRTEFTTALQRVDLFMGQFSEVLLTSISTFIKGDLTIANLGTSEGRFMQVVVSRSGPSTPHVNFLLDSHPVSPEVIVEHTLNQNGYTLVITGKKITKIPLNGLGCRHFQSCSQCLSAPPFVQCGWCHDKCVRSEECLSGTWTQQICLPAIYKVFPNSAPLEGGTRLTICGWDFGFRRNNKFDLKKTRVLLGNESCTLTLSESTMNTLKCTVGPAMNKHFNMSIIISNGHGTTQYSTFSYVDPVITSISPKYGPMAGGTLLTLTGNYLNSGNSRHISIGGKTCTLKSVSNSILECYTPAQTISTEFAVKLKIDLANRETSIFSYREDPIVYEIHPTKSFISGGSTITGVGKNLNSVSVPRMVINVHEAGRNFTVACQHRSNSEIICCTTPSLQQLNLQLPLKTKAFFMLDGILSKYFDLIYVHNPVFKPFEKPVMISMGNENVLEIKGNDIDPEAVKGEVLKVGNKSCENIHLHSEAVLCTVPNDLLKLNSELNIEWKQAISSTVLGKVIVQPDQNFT

B1: humanized antibody huAbF46-H4 (antibody, human IgG1, kappa)
heavy: not shown
light: DIQMTQSPSSLSASVGDRVTITCKSSQSLLASGNQNNYLAWHQQKPGKAPKMLIIWASTRVSGVPSRFSGSGSGTDFTLTISSLQPEDFATYYCQQSYSAPLTFGQGTKVEIKRTVAAPSVFIFPPSDEQLKSGTASVVCLLNNFYPREAKVQWKVDNALQSGNSQESVTEQDSKDSTYSLSSTLTLSKADYEKHKVYACEVTHQGLSSPVTKSFNRGE
notes: also called hAbF46-H4
In test [1], B1 registered a dissociation constant (Kd) of 2.05 to 2.39 nM, a koff of 0.000696 s⁻¹ and an on-rate constant (kon) of 339000 M⁻¹ s⁻¹. In test [2], this molecule had a Kd of 2.39 nM, a koff of 0.000802 s⁻¹ and an association rate constant (kon) of 336000 M⁻¹ s⁻¹.

B2: chimeric antibody chAbF46 (antibody, human IgG1)
heavy: not shown
light: DILMTQSPSSLTVSAGEKVTMSCKSSQSLLASGNQNNYLAWHQQKPGRSPKMLIIWASTRVSGVPDRFIGSGSGTDFTLTINSVQAEDLAVYYCQQSYSAPLTFGAGTKLELKRTVAAPSVFIFPPSDEQLKSGTASVVCLLNNFYPREAKVQWKVDNALQSGNSQESVTEQDSKDSTYSLSSTLTLSKADYEKHKVYACEVTHQGLSSPVTKSFNRGEC
notes: Mouse AbF46 variable regions on human IgG1 constant regions
In test [1], B2 came in with a Kd of 1.01 to 1.42 nM, a koff of 0.000367 s⁻¹ and an on-rate (kon) of 363000 M⁻¹ s⁻¹. In test [3], this molecule displayed a dissociation constant Kd of 1.01 nM, an off-rate constant (koff) of 0.000367 s⁻¹ and an on-rate constant (kon) of 363000 M⁻¹ s⁻¹.

B3: chAbF46-U7-HC6 (antibody, human IgG1)
heavy: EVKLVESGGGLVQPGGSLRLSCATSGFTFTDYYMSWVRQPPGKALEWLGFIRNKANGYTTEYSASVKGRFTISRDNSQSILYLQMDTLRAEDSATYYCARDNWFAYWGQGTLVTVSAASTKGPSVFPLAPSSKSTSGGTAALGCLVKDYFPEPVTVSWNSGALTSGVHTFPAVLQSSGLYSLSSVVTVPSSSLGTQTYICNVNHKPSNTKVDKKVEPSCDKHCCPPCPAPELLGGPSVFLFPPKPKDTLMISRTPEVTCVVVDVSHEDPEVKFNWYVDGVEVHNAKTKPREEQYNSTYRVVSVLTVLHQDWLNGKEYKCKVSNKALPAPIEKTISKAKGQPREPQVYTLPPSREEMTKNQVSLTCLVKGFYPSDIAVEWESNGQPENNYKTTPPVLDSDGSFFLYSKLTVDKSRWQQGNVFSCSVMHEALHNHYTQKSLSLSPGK
light: DILMTQSPSSLTVSAGEKVTMSCKSSQSLLASGNQNNYLAWHQQKPGRSPKMLIIWASTRVSGVPDRFIGSGSGTDFTLTINSVQAEDLAVYYCQQSYSAPLTFGAGTKLELKRTVAAPSVFIFPPSDEQLKSGTASVVCLLNNFYPREAKVQWKVDNALQSGNSQESVTEQDSKDSTYSLSSTLTLSKADYEKHKVYACEVTHQGLSSPVTKSFNRGEC
In test [3], B3 displayed a Kd of 1.66 nM, a koff of 0.000862 s⁻¹ and a kon of 518000 M⁻¹ s⁻¹.

B4: chAbF46-U3-HC9 (antibody, human IgG1)
heavy: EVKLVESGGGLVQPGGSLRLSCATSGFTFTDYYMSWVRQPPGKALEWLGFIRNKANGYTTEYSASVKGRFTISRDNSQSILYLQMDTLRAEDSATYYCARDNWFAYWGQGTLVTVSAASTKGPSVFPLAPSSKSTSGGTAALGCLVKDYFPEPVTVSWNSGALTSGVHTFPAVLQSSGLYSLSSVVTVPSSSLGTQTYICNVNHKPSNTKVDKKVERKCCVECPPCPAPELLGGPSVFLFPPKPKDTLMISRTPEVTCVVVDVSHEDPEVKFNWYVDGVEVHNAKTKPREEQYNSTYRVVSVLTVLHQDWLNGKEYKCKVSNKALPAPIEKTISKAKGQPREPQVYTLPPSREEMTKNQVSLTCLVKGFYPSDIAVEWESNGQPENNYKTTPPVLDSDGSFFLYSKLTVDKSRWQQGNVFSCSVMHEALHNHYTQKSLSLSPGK
light: DILMTQSPSSLTVSAGEKVTMSCKSSQSLLASGNQNNYLAWHQQKPGRSPKMLIIWASTRVSGVPDRFIGSGSGTDFTLTINSVQAEDLAVYYCQQSYSAPLTFGAGTKLELKRTVAAPSVFIFPPSDEQLKSGTASVVCLLNNFYPREAKVQWKVDNALQSGNSQESVTEQDSKDSTYSLSSTLTLSKADYEKHKVYACEVTHQGLSSPVTKSFNRGEC
With B4, in test [3], the dissociation constant Kd was found to be 1.38 nM, the koff was found to be 0.000554 s⁻¹ and the kon turned out to be 400000 M⁻¹ s⁻¹.

B5: chAbF46-U6-HC8 (antibody, human IgG1)
heavy: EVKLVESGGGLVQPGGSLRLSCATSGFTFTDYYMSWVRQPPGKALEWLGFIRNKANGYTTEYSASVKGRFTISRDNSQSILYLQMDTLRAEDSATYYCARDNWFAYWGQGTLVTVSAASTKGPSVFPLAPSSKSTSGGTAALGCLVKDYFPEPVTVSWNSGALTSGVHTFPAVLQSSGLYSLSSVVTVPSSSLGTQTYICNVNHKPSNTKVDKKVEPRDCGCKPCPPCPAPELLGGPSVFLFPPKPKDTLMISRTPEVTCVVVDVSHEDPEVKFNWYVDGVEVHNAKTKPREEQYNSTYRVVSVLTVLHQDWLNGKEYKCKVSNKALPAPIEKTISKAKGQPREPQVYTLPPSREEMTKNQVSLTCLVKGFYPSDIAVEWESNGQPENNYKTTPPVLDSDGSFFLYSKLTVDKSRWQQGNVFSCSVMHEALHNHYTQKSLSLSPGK
light: DILMTQSPSSLTVSAGEKVTMSCKSSQSLLASGNQNNYLAWHQQKPGRSPKMLIIWASTRVSGVPDRFIGSGSGTDFTLTINSVQAEDLAVYYCQQSYSAPLTFGAGTKLELKRTVAAPSVFIFPPSDEQLKSGTASVVCLLNNFYPREAKVQWKVDNALQSGNSQESVTEQDSKDSTYSLSSTLTLSKADYEKHKVYACEVTHQGLSSPVTKSFNRGEC
In the case of B5, in test [3], binding was characterised by a dissociation constant (Kd) of 1.34 nM, the dissociation rate constant (koff) was 0.000626 s⁻¹ and the kon turned out to be 469000 M⁻¹ s⁻¹.

B6: chAbF46-U8-HC5 (antibody, human IgG1)
heavy: not shown
light: DILMTQSPSSLTVSAGEKVTMSCKSSQSLLASGNQNNYLAWHQQKPGRSPKMLIIWASTRVSGVPDRFIGSGSGTDFTLTINSVQAEDLAVYYCQQSYSAPLTFGAGTKLELKRTVAAPSVFIFPPSDEQLKSGTASVVCLLNNFYPREAKVQWKVDNALQSGNSQESVTEQDSKDSTYSLSSTLTLSKADYEKHKVYACEVTHQGLSSPVTKSFNRGEC
In test [3], B6 had a dissociation constant Kd of 1.32 nM, a dissociation rate constant (koff) of 0.000678 s⁻¹ and an on-rate (kon) of 515000 M⁻¹ s⁻¹.

B7: chAbF46-U6-HC7 (antibody, human IgG1)
heavy: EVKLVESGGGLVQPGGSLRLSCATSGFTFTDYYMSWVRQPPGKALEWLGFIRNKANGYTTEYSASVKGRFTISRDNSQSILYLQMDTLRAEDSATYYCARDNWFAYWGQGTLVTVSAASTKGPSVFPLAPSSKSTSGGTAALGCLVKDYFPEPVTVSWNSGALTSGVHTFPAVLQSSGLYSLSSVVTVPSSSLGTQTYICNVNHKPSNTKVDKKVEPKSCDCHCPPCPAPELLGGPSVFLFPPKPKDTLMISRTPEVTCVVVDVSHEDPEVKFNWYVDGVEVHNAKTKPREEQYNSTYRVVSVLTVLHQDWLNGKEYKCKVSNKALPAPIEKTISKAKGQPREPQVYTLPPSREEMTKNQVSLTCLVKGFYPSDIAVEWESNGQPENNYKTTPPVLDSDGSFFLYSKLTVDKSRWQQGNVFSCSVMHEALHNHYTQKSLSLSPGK
light: DILMTQSPSSLTVSAGEKVTMSCKSSQSLLASGNQNNYLAWHQQKPGRSPKMLIIWASTRVSGVPDRFIGSGSGTDFTLTINSVQAEDLAVYYCQQSYSAPLTFGAGTKLELKRTVAAPSVFIFPPSDEQLKSGTASVVCLLNNFYPREAKVQWKVDNALQSGNSQESVTEQDSKDSTYSLSSTLTLSKADYEKHKVYACEVTHQGLSSPVTKSFNRGEC
B7: in test [3], the Kd is 1.63 nM, the koff is 0.000614 s⁻¹ and the kon was determined as 376000 M⁻¹ s⁻¹.

B8: humanized antibody huAbF46-H1 (antibody, human IgG1, kappa, V domains shown)
VH: EVQLVESGGGLVQPGGSLRLSCAASGFTFTDYYMSWVRQAPGKGLEWLGFIRNKANGYTTEYSASVKGRFTISRDNSKNSLYLQMNSLKTEDTAVYYCARDNWFAYWGQGTLVTVSS
VL: DIVMTQSPDSLAVSLGERATINCKSSQSLLASGNQNNYLAWHQQKPGQPPKMLIIWASTRVSGVPDRFSGSGSGTDFTLTISSLQAEDVAVYYCQQSYSAPLTFGGGTKVEIKR
notes: also called hAbF46-H1
In the case of B8, in test [1], the Kd lay within 1.89 to 1.97 nM, the koff turned out to be 0.000655 s⁻¹ and the association rate constant (kon) came out at 346000 M⁻¹ s⁻¹. In test [2], binding was characterised by a dissociation constant (Kd) of 1.89 nM, the koff amounted to 0.000655 s⁻¹ and the kon turned out to be 346000 M⁻¹ s⁻¹.

B9: huAbF46-H4-U7-HC6 (antibody)
heavy: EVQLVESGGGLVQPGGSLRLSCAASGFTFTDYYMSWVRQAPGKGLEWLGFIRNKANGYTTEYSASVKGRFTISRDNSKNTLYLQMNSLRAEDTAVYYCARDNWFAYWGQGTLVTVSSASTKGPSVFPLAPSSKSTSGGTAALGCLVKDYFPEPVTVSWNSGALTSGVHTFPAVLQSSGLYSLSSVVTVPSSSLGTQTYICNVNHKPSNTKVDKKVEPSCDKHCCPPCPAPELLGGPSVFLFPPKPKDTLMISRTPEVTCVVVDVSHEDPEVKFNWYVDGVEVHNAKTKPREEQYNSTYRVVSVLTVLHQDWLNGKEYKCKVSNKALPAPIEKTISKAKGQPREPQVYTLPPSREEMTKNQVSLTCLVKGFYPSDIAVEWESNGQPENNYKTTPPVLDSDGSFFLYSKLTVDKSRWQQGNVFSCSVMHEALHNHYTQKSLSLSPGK
light: DIQMTQSPSSLSASVGDRVTITCKSSQSLLASGNQNNYLAWHQQKPGKAPKMLIIWASTRVSGVPSRFSGSGSGTDFTLTISSLQPEDFATYYCQQSYSAPLTFGQGTKVEIKRTVAAPSVFIFPPSDEQLKSGTASVVCLLNNFYPREAKVQWKVDNALQSGNSQESVTEQDSKDSTYSLSSTLTLSKADYEKHKVYACEVTHQGLSSPVTKSFNRGEC
Consider B9, for which, in test [2], the Kd came to 3.74 nM, the koff was determined as 0.000981 s⁻¹ and the on-rate constant (kon) was found to be 263000 M⁻¹ s⁻¹.
